Experimental data taken from patent US20110135573A1 (DYAX, published 2011).
Values belong to the binder of their own block, whether it stands above or below them.

How the values were obtained:
MMP-9 (PMA-activated) = MMP-9 (PMA-activated) (Homo sapiens (Human), UniProt P14780 107-707, Biotinylated for the phage selection; the biotin sites are not stated and the letters do not carry them.); test: apparent KD; method not stated
h-MMP-9/h-TIMP-1 complex [1] = molecular target: T1, h-MMP-9/h-TIMP-1 complex (human, UniProt P14780 107-457; P01033 24-207, limits assumed); test: SPR (Biacore 3000), antibody captured via anti-Fc
T1 construct: Preformed non-covalent complex flowed over the antibody surfaces; also called huTIMP-1/cat-huMMP-9; h-TIMP-1/h-MMP-9 complex
Method: (§1) Experiments were performed at 25° C. with the help of a Biacore 3000 instrument. The MMP-9 binding protein (M0166F10) and the M0237-D02 antibody were coated to a CM5 chip either via standard amine coupling or using an anti-Fc antibody surface. Then either the active, human MMP-9 catalytic domain (BIOMOL, SE-244), the human pro-MMP-9 (R&D, 911-MP), the human TIMP-1 (R&D, 970-TM) or a h-MMP-9/h-TIMP-1 complex were flowed over the antibody surfaces, and binding was recorded.
(§2) It was shown that the human MMP-9 catalytic domain binds to M0166-F10, whether this antibody is directly captured via amine coupling or captured with an anti-Fc antibody surface.

[2] = molecular target: T2, Human MMP-9 catalytic domain (BIOMOL, SE-244) (human, UniProt P14780 107-457, limits assumed); test: plot of kobs against antibody concentration, inhibition progress curves
T2 construct: domain: catalytic domain; also called Cat-huMMP-9; cat-huMMP-9

[3] = molecular target: T3, human MMP-2 (Biomol #SE-237) (human, UniProt P08253 110-452, limits assumed); test: Ki,app, enzyme inhibition assay (fluorogenic peptide substrate), IgG
T3 construct: also called hMMP-2

[4] = molecular target: T4, Mouse MMP-9 (R&D, 909-MM), APMA-activated (mouse, UniProt P41245 108-730, limits assumed); test: Ki,app, enzyme inhibition assay (fluorogenic peptide substrate), IgG; told as Ki of 1.3±0.1 nM in Example 2
T4 construct: also called mMMP-9; mouse MMP-9 (R&D Systems #909-MM-010)
Method: (§3) Materials: [0495] Substrate: Mca-KPLGL-Dap(Dnp)-AR-NH₂ (M-2350) from BACHEM (521575). A 10 mM stock solution was prepared in DMSO. [0496] Enzymes: [0497] Human MMP-9 catalytic domain (BIOMOL, SE-244). Enzyme concentration was measured by titration with TIMP-1 (2522-104) [0498] Mouse MMP-9 (R&D, 909-MM), APMA-activated. [0499] M0237-D02 hIgG1: 2517-014. Dialysed against TCN. [0500] TCNB: 50 mM Tris/HCl, 10 mM CaCl₂, 150 mM NaC, […] Brij 35, pH 7.5. [0501] -96-well black plates from Perkin Elmer (6005270) [0502] Spectramax M2e to measure fluorescence emission of the substrate upon hydrolysis (temperature control set at 30° C.; λexc=328 nm and λₑₘ=393 nm)
(§4) The enzyme (final concentration=0.23 and 0.17 nM for the human and mouse MMP-9, respectively) was preincubated with various concentrations (0-50 nM) of M0237-D02 for 1 h at 30° C. The substrate was then added to a final concentration ranging from 5 to 40 μM and initial rates were recorded.

[5] = molecular target: T2, Human MMP-9 catalytic domain (BIOMOL, …); test: Ki,app, enzyme inhibition assay (fluorogenic peptide substrate), IgG; told as Ki of 0.92±0.04 nM in Example 2
Method: as §3, §4

[6] = molecular target: T5, human pro-MMP-9 (R&D, 911-MP) (human, UniProt P14780 20-707); test: SPR (Biacore 3000), antibody amine-coupled (direct capture)
T5 construct: Pro-enzyme; also called Pro-huMMP-9
Method: as §1, §2

[7] = molecular target: T6, human TIMP-1 (R&D, 970-TM) (human, UniProt P01033 24-207); test: as above
T6 construct: also called huTIMP-1; h-TIMP-1
Method: as §1, §2

h-MMP-9/h-TIMP-1 complex [8] = molecular target: T1, h-MMP-9/h-TIMP-1 complex; test: as above
Method: as §1, §2

T2 sequence (P14780 107-457 limits assumed): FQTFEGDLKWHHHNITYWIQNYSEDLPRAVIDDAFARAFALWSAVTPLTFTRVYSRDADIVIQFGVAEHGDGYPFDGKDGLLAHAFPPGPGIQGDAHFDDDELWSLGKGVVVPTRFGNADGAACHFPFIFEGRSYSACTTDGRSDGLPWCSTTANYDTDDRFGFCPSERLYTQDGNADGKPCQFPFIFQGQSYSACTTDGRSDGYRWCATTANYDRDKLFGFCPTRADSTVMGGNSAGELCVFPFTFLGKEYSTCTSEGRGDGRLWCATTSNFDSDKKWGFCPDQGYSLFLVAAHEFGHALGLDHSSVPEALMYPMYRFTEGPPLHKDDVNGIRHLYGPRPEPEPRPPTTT
T1 sequence (P14780 107-457 limits assumed, chain 1 of 2): as the sequence (P14780 107-457 limits assumed) above
T1 sequence (P01033 24-207 limits assumed, chain 2 of 2): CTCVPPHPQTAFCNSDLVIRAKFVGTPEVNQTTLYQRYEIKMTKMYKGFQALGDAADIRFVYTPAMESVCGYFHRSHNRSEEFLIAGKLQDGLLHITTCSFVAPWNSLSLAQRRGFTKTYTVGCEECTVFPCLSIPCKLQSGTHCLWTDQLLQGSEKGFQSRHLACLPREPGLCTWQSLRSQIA
T4 sequence (P41245 108-730 limits assumed): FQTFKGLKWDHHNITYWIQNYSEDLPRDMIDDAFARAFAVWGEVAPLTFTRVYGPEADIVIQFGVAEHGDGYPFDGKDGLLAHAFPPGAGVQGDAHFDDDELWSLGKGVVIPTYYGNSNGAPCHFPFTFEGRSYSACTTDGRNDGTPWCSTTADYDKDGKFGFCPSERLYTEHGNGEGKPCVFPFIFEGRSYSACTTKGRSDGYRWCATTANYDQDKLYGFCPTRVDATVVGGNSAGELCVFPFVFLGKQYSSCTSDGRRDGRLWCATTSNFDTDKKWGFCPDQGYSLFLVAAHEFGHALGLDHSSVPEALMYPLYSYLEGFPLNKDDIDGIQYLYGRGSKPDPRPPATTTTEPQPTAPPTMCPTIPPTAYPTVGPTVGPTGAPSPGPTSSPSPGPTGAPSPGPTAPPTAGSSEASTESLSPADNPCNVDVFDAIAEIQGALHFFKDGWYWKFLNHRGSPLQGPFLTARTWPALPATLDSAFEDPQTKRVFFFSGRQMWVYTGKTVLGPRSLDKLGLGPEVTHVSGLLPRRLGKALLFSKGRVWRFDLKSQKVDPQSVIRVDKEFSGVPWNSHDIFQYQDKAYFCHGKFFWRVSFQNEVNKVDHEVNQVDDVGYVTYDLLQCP
Chain of MMP-9 (PMA-activated) (P14780 107-707 limits assumed, form in doubt): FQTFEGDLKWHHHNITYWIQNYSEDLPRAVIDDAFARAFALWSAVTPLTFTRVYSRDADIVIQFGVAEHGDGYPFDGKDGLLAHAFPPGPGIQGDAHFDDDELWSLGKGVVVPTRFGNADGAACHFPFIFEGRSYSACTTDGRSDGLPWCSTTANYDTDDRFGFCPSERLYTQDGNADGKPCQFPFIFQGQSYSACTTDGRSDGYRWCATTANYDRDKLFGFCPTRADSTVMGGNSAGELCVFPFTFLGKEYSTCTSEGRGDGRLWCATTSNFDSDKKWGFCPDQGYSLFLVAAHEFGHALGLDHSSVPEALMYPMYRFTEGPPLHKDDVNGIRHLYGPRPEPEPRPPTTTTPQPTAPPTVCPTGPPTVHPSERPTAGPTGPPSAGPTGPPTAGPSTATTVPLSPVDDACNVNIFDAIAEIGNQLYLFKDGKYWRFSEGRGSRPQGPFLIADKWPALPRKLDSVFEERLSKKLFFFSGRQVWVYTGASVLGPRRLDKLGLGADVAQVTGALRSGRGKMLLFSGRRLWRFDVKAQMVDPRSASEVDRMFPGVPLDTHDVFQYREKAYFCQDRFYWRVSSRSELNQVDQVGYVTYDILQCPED
T6 sequence (P01033 24-207 limits assumed): as the sequence (P01033 24-207 limits assumed, chain 2 of 2) above
T5 sequence (P14780 20-707): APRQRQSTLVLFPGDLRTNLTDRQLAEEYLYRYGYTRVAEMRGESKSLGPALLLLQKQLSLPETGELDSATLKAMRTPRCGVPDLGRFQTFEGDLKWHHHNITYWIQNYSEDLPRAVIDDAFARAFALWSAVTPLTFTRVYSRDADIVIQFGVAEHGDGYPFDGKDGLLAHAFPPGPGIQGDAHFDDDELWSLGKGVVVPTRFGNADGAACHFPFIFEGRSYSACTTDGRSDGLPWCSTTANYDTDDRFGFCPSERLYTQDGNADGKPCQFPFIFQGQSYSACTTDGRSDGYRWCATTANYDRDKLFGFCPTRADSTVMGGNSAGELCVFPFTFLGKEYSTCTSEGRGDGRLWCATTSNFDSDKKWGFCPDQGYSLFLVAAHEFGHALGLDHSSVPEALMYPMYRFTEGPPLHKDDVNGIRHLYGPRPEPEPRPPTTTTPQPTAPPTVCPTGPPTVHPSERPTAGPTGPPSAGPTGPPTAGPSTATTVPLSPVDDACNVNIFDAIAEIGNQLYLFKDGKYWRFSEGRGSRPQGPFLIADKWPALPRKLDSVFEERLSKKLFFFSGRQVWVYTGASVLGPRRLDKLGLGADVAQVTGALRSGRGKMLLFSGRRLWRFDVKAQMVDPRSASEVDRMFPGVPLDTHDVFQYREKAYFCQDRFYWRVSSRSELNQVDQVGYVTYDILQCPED
T3 sequence (P08253 110-452 limits assumed): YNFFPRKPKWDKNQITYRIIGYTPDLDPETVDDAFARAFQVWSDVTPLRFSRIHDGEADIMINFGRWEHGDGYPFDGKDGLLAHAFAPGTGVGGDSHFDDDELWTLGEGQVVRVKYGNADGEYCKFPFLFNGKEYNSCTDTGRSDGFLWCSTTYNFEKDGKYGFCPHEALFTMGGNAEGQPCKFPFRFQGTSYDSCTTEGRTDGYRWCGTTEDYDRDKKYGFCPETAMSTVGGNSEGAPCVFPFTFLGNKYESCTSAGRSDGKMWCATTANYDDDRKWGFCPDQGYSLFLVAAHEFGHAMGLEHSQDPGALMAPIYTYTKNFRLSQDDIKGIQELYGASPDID

Kd (MMP-9 (PMA-activated)): 5.9 nM
B1: M0076-D03 (Fab, V domains shown)
VH: EVQLLESGGGLVQPGGSLRLSCAASGFTFSLYRMNWVRQAPGKGLEWVSYIGSSGGATAYADSVKGRFTISRDNSKNTLYLQMNSLRAEDTAVYYCARGAWYLDSWGQGTLVTVSS
VL: DIQMTQSPSSLSASVGDRVTITCRASQGIRNDLDWYQQKPGTAPKRLIYSASNLQSGVPSRFSGSGSGTEFTLTISNLQPEDLATYFCLQHNSFPLTFGQGTKVEIK
notes: variable domains only

binding result (h-MMP-9/h-TIMP-1 complex [1]): no binding | koff [2]: ~0.0004 s⁻¹ | kon [2]: ~70000 M⁻¹ s⁻¹ | Ki [3]: 17 nM | Ki [4]: 1.3 nM | Ki [5]: 0.92 nM
B2: 539A-M0237-D02 hIgG1 (antibody, V domains shown)
VH: EVQLLESGGGLVQPGGSLRLSCAASGFTFSQYPMWWVRQAPGKGLEWVSYIVPSGGRTYYADSVKGRFTISRDNSKNTLYLQMNSLRAEDTAVYYCAKDRAYGDYVGWNGFDYWGQGTLVTVSS
VL: DIQMTQSPATLSLSPGERATLSCRASQSISSFLAWYQQKPGQAPRLLIYDASYRATGIPARFSGSGSGTDFTLTISSLEPEDYAVYYCQQRGNWPITFGQGTRLEIK
notes: Tested as human IgG1 (parental); also called M237-D02; DL8

binding result [6]: no binding | binding result [7]: no binding | binding result (h-MMP-9/h-TIMP-1 complex [8]): no binding
B3: 539A-M0166-F10 (antibody, V domains shown)
VH: EVQLLESGGGLVQPGGSLRLSCAASGFTFSPYLMNWVRQAPGKGLEWVSSIYSSGGGTGYADSVKGRFTISRDNSKNTLYLQMNSLRAEDTAVYYCARIYHSSSGPFYGMDVWGQGTTVTVSS
VL: QSELTQPPSASAAPGQRVTISCSGSSSNIGSNTVTWYQKLPGTAPKLLIYNNYERPSGVPARFSGSKSGTSASLAISGLQSEDEADYYCATWDDSLIANYVFGSGTKVTVLG
notes: also called DL15
